± gives the uncertainty stated by the source.
assay: amyloid nucleation score (Sup35N fusion, yeast selection) (log enrichment); library NNK1; higher = more nucleation; inactive = no reads after selection
Procedure, shortened: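 The nucleation score equals the log enrichment of output over input reads from DiMSum, centred on the mode score of non-aggregating sequences. It was computed only for sequences with 100 or more input reads. The reads came from Illumina sequencing of plasmid inserts from psi-negative yeast expressing Sup35N fused to peptides of 20 random codons, induced with 100 μM copper sulfate for 24 hours and grown 7 days at 30°C without adenine and uracil.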

| Substance | amyloid nucleation score |
| --- | --- |
| CIFSRNQGLIHRLEDNGH | 0.685 ± 0.33 |
| CIFTRKGIEVVCWLEGRMVP | 0.411 ± 1.2 |
| CILGWKYLDVVYDQRRLRCG | 0.939 ± 0.46 |
| CIMPMIGKYVGVFSSGSSIS | inactive |
| CIVNMNRGWISIDLLRD | 5.78 ± 0.073 |
| CIVVYLSLY | 3.32 ± 0.099 |
| CKDFRRAVVNEFPVSVSFYC | 0.922 ± 0.9 |
| CKHVETK | -0.535 ± 1.4 |
| CKQCRE | -0.01 ± 0.74 |
| CKQRKCLGRIYVCEHISQSL | 0.461 ± 0.67 |
| CLARGSKYWNRQNKVNFPYI | 1.51 ± 0.13 |
| CLCARML | 0.542 ± 0.67 |
| CLDVGHIFLGKVEWTGEPW | -0.375 ± 0.64 |
| CLFFLPQGLKRYE | 0.015 ± 0.53 |
| CLFLWVTSVL | 1.19 ± 0.57 |
| CLFNEALINANHLNNINWML | -0.361 ± 0.66 |
| CLFNQKGMFTSGCKVYLTLV | -0.152 ± 0.27 |
| CLKFSIFDGE | 0.127 ± 0.6 |
| CLKWTVNIDGFIPDARLPRS | 3.18 ± 0.18 |
| CLLFNGNKLVCSHILMRKNG | 0.443 ± 0.23 |
| CLLIVRISNSKFVVPPTVFA | 0.608 ± 0.49 |
| CLLVLLLGLRLPYRPRLVFV | 0.463 ± 0.79 |
| CLNSHFGKNISNLFVCDLVC | 0.484 ± 0.61 |
| CLNVCSLFRSTYRFKRVREC | 0.434 ± 0.37 |
| CLQDMFFTNELSFAGTLLIS | 0.049 ± 0.34 |
| CLRDNSRRGRNVQSL | -1 ± 1.5 |

| Substance | amyloid nucleation score |
| --- | --- |
| CLSCSNICFFIHSVNWDVFS | 5.27 ± 0.11 |
| CLSVLSCSVTSNYWLTS | 7.984 ± 0.056 |
| CLTGIGKLPVGSGPV | 0.198 ± 0.77 |
| CLTLPYYSIYAVGESRMFEW | 0.003 ± 0.27 |
| CLTMWIV | -0.285 ± 0.68 |
| CLVELVYFCGLSVGQ | -0.17 ± 0.85 |
| CLVVTETANI | -0.578 ± 0.69 |
| CLWCDRTVASWAKVSASVRL | -0.073 ± 0.24 |
| CMAVWEKIENGVHLLHRSAD | 2.76 ± 0.12 |
| CMDKCVCERHPYL | -0.345 ± 1.7 |
| CMLSCFSDRAWIMQRSVCAC | 0.879 ± 0.65 |
| CMLVYCEVASVGVSFKLWWR | 1.73 ± 0.39 |
| CMSSLLFD | 0.921 ± 0.49 |
| CMWPFTDYTIIKTSLYTWTN | -1.09 ± 0.53 |
| CNDFCCT | inactive |
| CNMVHVVIERDGSGRRGCGL | 5.38 ± 0.055 |
| CNMVLFRVKYY | 2.67 ± 0.1 |
| CPGLFVGLCPMAHMVACCHR | inactive |
| CPHALYKSLIIPGSMFYKVR | -1.04 ± 1.7 |
| CPRHVALGHLNYLGQDFDLK | 0.326 ± 1.2 |
| CPSIILPFVYRNGSVTMVPF | 0.927 ± 0.2 |
| CPVRSRIVVRCLYFSHMRST | 0.263 ± 1.1 |
| CQLNTASVSNNGGRVLGMYR | 0.529 ± 0.79 |
| CRACRLRVIFNELMVGWVMF | inactive |
| CRAGY | -0.534 ± 0.64 |
| CRDAILIEVGNYRHLVLGPV | 0.677 ± 0.52 |

| Substance | amyloid nucleation score |
| --- | --- |
| CREVAKFGKLSNRQSRGCAI | -0.951 ± 1.4 |
| CRLFYSWNVNMYRNMLLRWI | -0.767 ± 0.33 |
| CRLIVISTTYIIKAQKCLIG | -0.512 ± 0.33 |
| CRLVVMVIVQLHGIDFELAL | 0.951 ± 0.54 |
| CRRIHFLVTMVTGSPLCLSG | -0.627 ± 0.32 |
| CRSFYIIEIVKMGPNGRKGV | -1 ± 0.78 |
| CSAFDVIN | -0.556 ± 1.4 |
| CSAQTGVGSFPFGNIPVVSV | 0.789 ± 0.56 |
| CSAVS | 0.241 ± 0.39 |
| CSCVCETEGRLSSSCYHHMP | 0.184 ± 0.38 |
| CSDNV | 1.01 ± 0.49 |
| CSLILALPN | 0.951 ± 0.6 |
| CSLLSAPPVDSLWGTESRLI | -0.804 ± 0.73 |
| CSNDLECFCDFNCRL | -0.033 ± 0.39 |
| CSNEK | 0.319 ± 0.97 |
| CSNRWCLKTRVERVMERGSV | 0.218 ± 0.54 |
| CSQDYFIYYYPVLMLE | -0.112 ± 0.46 |
| CSSKGCLVSESFLHLMTNLC | 0.969 ± 0.42 |
| CSSWVMGLIFWECLKNMDKV | -1.39 ± 1.3 |
| CSTALLDEKLLFHGTYIMRD | 1.08 ± 0.57 |
| CSVGASAIGNM | 0.717 ± 0.59 |
| CSVTLVVRV | 0.676 ± 0.63 |
| CSYSLSRFVLIHDRIVNMVT | 1.35 ± 0.4 |
| CTTNIPAKLHLNSVVRVVRA | -1.27 ± 2.7 |
| CVALGGLMAMLIASVIWENN | -0.354 ± 0.72 |
| CVALGLLGRCVLLVAGGGWA | 0.503 ± 0.54 |

| Substance | amyloid nucleation score |
| --- | --- |
| CVANLPGSKVLVWNTKFK | 5.38 ± 0.056 |
| CVAWVSSNPRVGGDIRTWTE | 0.021 ± 0.48 |
| CVGRQLAGKAYLVLRWRECD | -0.372 ± 1.4 |
| CVHAHTTHITSCRARPSTEA | 0.435 ± 0.28 |
| CVLPYCS | 0.297 ± 0.54 |
| CVNQWILVPGRAF | inactive |
| CVRRLRVLCTFLLVTLLYCI | 1.67 ± 0.29 |
| CVSEDDMLLDYDPVCKFVWW | 2.62 ± 0.15 |
| CVSLCVHKDMIVIAPGTLTQ | 4.81 ± 0.064 |
| CVTCFTLGSVRGKRTASACW | 0.322 ± 0.18 |
| CVWNYCAWFTVARNTTLFNN | -0.508 ± 0.89 |
| CWGFYL | -0.976 ± 1.1 |
| CWLMGMSGPPFDRVWGVVIR | -0.086 ± 1.2 |
| CWYLYRFSNTMMNRTTLPCG | -0.169 ± 0.53 |
| CYAGFCNQRLPHYLLKLQVL | -0.42 ± 1.7 |
| CYCFET | -0.381 ± 0.71 |
| CYCWPTTKKIPFKSL | -0.739 ± 1.9 |
| CYTLFAVVNMLLVFNWQCRD | -0.34 ± 0.36 |
| CYVSS | -0.548 ± 0.53 |
| DAFAGF | 0.054 ± 0.59 |
| DAGGYLQEIARTPFTVARQQ | 0.195 ± 0.35 |
| DAPVTSSGSML | 0.008 ± 0.23 |
| DAQWAYYTRTYFWYVFSAVC | 0.27 ± 0.23 |
| DARLFDFYFANLVSSQGNCF | 1.09 ± 0.56 |
| DASSKIRPSIGRMQKHWY | -0.513 ± 0.85 |
| DASTEITGLAPGFSTTVGRM | -0.536 ± 0.81 |

| Substance | amyloid nucleation score |
| --- | --- |
| DATVQTWGDVKSGLWWVCCP | 5.62 ± 0.098 |
| DAVPSFTA | -0.666 ± 0.69 |
| DAVQLMSCCMTISGPTKNRA | 0.184 ± 0.56 |
| DAYTGCIDNSVANAG | 0.481 ± 0.6 |
| DCAKTANDSDVLFFDTSGAR | 0.504 ± 0.4 |
| DCLWPLVSMFLVPLRASKVR | 0.128 ± 0.44 |
| DCQNYLSFVN | -1.29 ± 2.4 |
| DCVKGHSECCRPSKLVKYWR | inactive |
| DDHSLQPRLPLE | inactive |
| DDLPPRRNASFQWNKGFFRV | -0.448 ± 1.7 |
| DDPLNVTHKVRN | 5.31 ± 0.069 |
| DDSSDTEVRLGYALAGIKVG | -0.406 ± 0.34 |
| DDYTGSEVNIITIV | -1.43 ± 0.44 |
| DEPAWCSIFAGDIMLKCC | 3.57 ± 0.077 |
| DETDQNTFTTSIV | 1.23 ± 0.28 |
| DFCVQNFMMLKFKLCYRRSL | -0.134 ± 1.2 |
| DFILQMLL | 0.401 ± 0.3 |
| DFLFNGLNITRCYFA | 0.193 ± 0.72 |
| DFLNWWCRCVTFNSGRSGFV | 0.392 ± 0.6 |
| DFLRIRVAKKSLDMGFIV | -0.251 ± 0.36 |
| DFTCIRMNQSFVIRAFGALC | 3.75 ± 0.16 |
| DGDVE | -0.494 ± 0.74 |
| DGGNVV | 0.452 ± 1.2 |
| DGKKYTVMSFSEQSK | -0.368 ± 1.7 |

Source: the supplement of paper PMC12042874
